Here are results for two molecules from paper PMC4375503, “Structural Insights into the Autoregulation and Cooperativity of the Human Transcription Factor Ets-2*”.

The target in data set [1] is T1, Ets-1 short (equivalent of Ets-2 360-464) (Mus musculus, UniProt P27577 331-440).
T1 sequence: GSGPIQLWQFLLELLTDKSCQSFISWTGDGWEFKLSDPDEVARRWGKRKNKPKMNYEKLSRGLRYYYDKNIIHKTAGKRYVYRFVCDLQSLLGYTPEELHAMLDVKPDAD
Put plainly: EMSA; apparent Kd; EMSA: 50 mM Tris-HCl pH 7.5, 25 mM NaCl, 50 mM L-arginine-HCl, 0.5 mM EDTA, 0.1% Tween 20, 2 mM DTT, 5% glycerol, room temperature 15 min; probe 0.1 nM (Ets-2). Particulars: protein: recombinant; tags: His tag removed by TEV; label: 5'-32P on strand 1; blunt.

Data set [2] addresses T2, Ets-2 360-464 (core Ets domain) (Homo sapiens, UniProt P15036 360-464).
T2 sequence: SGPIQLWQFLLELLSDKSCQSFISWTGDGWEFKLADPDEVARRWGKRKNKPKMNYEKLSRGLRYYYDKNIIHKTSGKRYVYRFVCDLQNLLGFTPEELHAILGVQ
Described as above. Particulars: protein: recombinant; tags: His tag removed by TEV; label: 5'-32P on strand 1; blunt.

Data set [3] deals with T3, Ets-2 325-464 (core Ets and autoinhibition domains) (Homo sapiens, UniProt P15036 325-464).
T3 sequence: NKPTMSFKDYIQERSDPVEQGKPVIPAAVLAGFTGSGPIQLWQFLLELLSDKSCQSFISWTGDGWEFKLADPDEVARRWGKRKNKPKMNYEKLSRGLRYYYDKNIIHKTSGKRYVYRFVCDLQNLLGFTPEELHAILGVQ
Put plainly: X-ray crystallography; 2.5 A; 3 Ets-2 and 3 duplexes per asymmetric unit; pH 5.5; EMSA: 50 mM Tris-HCl pH 7.5, 25 mM NaCl, 50 mM L-arginine-HCl, 0.5 mM EDTA, 0.1% Tween 20, 2 mM DTT, 5% glycerol, room temperature 15 min; probe 0.1 nM (Ets-2). As to conditions: protein: recombinant; tags: His tag removed by TEV; blunt.

B1: single-site EMSA probe (dsDNA)
DNA 1: ATCTCACCGGAAGTGTAGCA
DNA 2: TGCTACACTTCCGGTGAGAT
Consider B1, for which the results for the Kd in data set [1] and in data set [2] were 0.1 ± 0.06 nM and 0.4 ± 0.04 nM, respectively.

B2: crystallization 10-mer (dsDNA)
DNA 1: ACCGGAAGTG
DNA 2: CACTTCCGGT
Turning to B2, in data set [3], the binding result is “binds”.
